Experimental data published in paper doi:10.1101/2021.01.26.428356, “Sequence signatures of two IGHV3-53/3-66 public clonotypes to SARS-CoV-2 receptor binding domain” (bioRxiv, 2021).

Biological target: T1, Fc-tagged receptor-binding domain (RBD) of the SARS-CoV-2 spike (S) protein (SARS-CoV-2, Wuhan-Hu-1 (GenBank …, UniProt P0DTC2))
T1 construct: also called SARS-CoV-2 RBD; SARS-CoV-2 S RBD-Fc; not shown: Fc, C-terminal, kept
Assay: BLI; Octet Red96e; Fc-tagged RBD loaded onto the biosensor (streptavidin biosensors as printed), Fab in solution; 1x PBS pH 7.4, 0.01% w/v BSA, 0.002% v/v Tween 20; 60 s association, 60 s dissociation; 1:1 binding model
Conditions: both partners purified

Binder	Kd [nM]	binding result
COV107-23 Fab, wild type (F58) (Fab, V domains shown, also called WT COV107-23; clonotype 1 antibody; source: Expi293F, transiently co-transfected, purified (CaptureSelect CH1-XL column)) VH: EVQLVESGGGLIQPGGSLRLSCAASGFTVSSNYMSWVRQAPGKGLEWVSVIYSGGSTFYADSVKGRFTISRDNSKNTLYLQMNSLRAEDTAVYYCARDLGTGLFDYWGQGTLVTVSS VL: DIQLTQSPSFLSASVGDRVTITCRASQGISSYLAWYQQKPGKAPKLLIYAASTLQSGVPSRFSGSGSGTEFTLTISSLQPEDFATYYCQQLDSYPPGTFGPGTKVDIK	1	–
COVA2-20 Fab, wild type (Y58) (Fab, V domains shown) VH: EVQLVESGGGLIQPGGSLRLSCAASGFTVSSNYMSWVRQAPGKGLEWVSVIYSGGSTYYADSVKGRFTISRDNSKNTLYLQMNSLRAEDTAVYYCASPLLLTPPDYYYYMDVWGKGTMVTVSS VL: DVVMTQSPSSLSVSVGDRVTITCRASQGIRNDLGWYQQKPGKAPKRLIYAASSLQSGVPSRFSGSGSGTEFTLTISSLQPEDFATYYCLQHNSYLWTFGQGTKLEIK	–	binds
